From paper PMC5595237 (Nature, 2017)

Target: the molecule itself
Experiment: SEC

B1: full-length human adiponectin (ligand)
chain: ETTTQGPGVLLPLPKGACTGWMAGIPGHPGHNGAPGRDGRDGTPGEKGEKGDPGLIGPKGDIGETGVPGAEGPRGFPGIQGRKGEPGEGAYVYRSAFSVGLETYVTIPNMPIRFTKIFYNQQNHYDGSTGKFHCNIPGLYYFAYHITVYMKDVKVSLFKKDKAMLFTYDQYQENNVDQASGSVLLHLEVGDQVWLQVYGEGERNGLYADNDNDSTFTGFLLYHDTN
Does B1 bind?
Result: binds
